Laboratory results: patent US20160264680A1 (INSERM INSTITUT NATIONAL DE LA SANTE ET DE LA RECHERCHE …, published 2016)

Experiments:
[1] = biological target: wild type human KIT on cells (TF-1, Ba/F3-KIT, UT-7/EPO) (human) (UniProt P10721); experiment: cell-based or functional assay
[2] = biological target: T1, recombinant soluble human KIT extracellular domain (KIT-ECD), C-terminal 6His tag (human, UniProt P10721 26-509, biotinylated in the yeast display assays (sites not given)); experiment: soluble scFv ELISA on KIT-ECD
T1 construct: range 26-509; Made in High Five insect cells with a baculovirus, purified on Ni-NTA; major protein of 60 kD; Monovalent; also called c-KIT ECD; recombinant KIT

[3] = biological target: T2, human KIT V560G D816V as expressed on HMC1.2 mastocytoma cells (human, UniProt P10721 26-976); experiment: FACS on HMC1.2 cells, soluble scFv from concentrated bacterial supernatant, detected with anti-c-myc and anti-mouse Ig-PE [panel D]
T2 construct: whole, on cells; also called endogenous KIT on HMC1.2
Description: (D) FACS analysis of scFv binding to HMC1.2 cells. ScFvs were induced with IPTG 1 mM overnight at 25° C. from TG1 bacterial containing pHEN phagemid. Supernatant was collected, concentrated on Amicon ultra-4 centrifugal units and incubated with HMC1.2 cells at 4° C. ScFv binding to cells was detected with an anti-c-myc antibody and anti-mouse immunoglobulins conjugated to phycoerythrin. Fluorescence was measured by FACS.
Two hundred thousand HMC1.2 cells were resuspended in 100 μL of PBS-1% FBS at 4° C. (FACS buffer). One hundred μL of culture supernatant was added to the cells during 2 hours at 4° C. Cells were washed with FACS buffer and scFv binding to cells was detected with an anti-c-myc antibody (9E10; Sigma) followed by goat anti-mouse immunoglobulins (Ig) conjugated to PE (Beckton Dickinson).

[4] = biological target: T1, recombinant soluble human KIT …; experiment: flow cytometry of yeast displaying the scFv with biotinylated KIT-ECD, streptavidin-PE

T1 sequence (P10721 other isoform, or with tags, fused parts or gaps limits assumed): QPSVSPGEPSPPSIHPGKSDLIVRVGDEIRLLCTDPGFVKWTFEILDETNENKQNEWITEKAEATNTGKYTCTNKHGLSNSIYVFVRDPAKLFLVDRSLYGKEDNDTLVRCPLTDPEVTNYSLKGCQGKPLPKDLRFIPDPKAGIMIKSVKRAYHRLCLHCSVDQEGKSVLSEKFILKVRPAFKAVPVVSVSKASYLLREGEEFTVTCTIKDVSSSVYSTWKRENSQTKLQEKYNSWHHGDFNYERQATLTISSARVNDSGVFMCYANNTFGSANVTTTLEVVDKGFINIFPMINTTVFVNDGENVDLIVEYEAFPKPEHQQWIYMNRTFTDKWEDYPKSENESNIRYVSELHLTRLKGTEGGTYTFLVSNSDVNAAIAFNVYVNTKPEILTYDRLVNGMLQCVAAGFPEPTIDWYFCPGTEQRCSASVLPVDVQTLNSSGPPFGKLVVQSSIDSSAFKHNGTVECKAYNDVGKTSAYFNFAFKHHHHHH
T2 sequence (P10721 26-976 V560G/D816V): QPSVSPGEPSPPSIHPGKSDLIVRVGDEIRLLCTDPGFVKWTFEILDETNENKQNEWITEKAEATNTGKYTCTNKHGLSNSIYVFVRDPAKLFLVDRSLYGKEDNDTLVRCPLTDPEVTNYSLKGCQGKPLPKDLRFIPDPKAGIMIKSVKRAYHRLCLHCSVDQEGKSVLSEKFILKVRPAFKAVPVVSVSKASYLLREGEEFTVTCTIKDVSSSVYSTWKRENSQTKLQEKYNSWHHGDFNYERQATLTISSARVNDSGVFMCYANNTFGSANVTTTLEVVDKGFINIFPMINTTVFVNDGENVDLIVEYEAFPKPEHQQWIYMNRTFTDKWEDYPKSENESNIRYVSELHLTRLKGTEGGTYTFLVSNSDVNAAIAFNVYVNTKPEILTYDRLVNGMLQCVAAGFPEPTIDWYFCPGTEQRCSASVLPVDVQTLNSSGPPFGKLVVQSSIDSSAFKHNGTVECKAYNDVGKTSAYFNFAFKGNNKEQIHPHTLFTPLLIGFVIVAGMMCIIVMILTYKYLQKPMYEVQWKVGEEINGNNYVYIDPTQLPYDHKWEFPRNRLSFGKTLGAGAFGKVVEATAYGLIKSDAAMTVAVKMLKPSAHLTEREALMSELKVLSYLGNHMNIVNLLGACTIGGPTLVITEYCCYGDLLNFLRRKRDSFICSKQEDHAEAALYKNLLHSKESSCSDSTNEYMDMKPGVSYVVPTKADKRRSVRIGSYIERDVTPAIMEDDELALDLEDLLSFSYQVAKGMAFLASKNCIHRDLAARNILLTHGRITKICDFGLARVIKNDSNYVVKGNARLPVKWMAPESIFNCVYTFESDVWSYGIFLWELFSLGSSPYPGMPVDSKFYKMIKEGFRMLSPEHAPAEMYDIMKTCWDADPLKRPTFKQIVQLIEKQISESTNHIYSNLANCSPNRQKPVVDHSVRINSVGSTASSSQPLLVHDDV
wild type human KIT on cells (TF-1, Ba/F3-KIT, UT-7/EPO) (human), sequence (P10721 26-976): as the sequence (P10721 26-976 V560G/D816V) above, with G535V, V791D counted along it

mouse SCF in CHO-KL culture supernatant (from UniProt P20826 26-190) (ligand)
KIT surface down-regulation on UT-7/EPO cells after 1 hour (FACS with 104D2) [1]: 70%

B1: scFv 3G1, soluble monovalent scFv (scFv)
scFv: MAQVQLVESWGGVAQPGRSLRLSCAASGFTFSSFAMHWVRQAPGKGLEWVAVTSYDGSNEYYADSVKGRFTISRDNSKNTLYLQMNSLRAEDTAVYYCAKAMVRGVTFGDLDYWGQGTLVTVSSGGGGSGGGGSGGGGSSELTQDPAVSVALGQTVRITCQGDSLRSYYASWYQQKPEQAPVLVIYGENSRPSGIPDRFSGSSSGNTASLTITGAQAEDEADYYCNSRDSSGTHLRVFGGGTKLTVLG
notes: Expressed from phagemid pHEN in E. coli TG1, used as culture supernatant
binding result [2]: binds | binding result [3]: binds

B2: scFv 2D1, soluble monovalent scFv (scFv)
scFv: MAQVKLQESGGGLVQPGGSLRLSCAASGFTFDSYAMSWVRQAPGKGLEWVSYITSSSSTIYYVDSVKGRFTISRDNAKNSLYLQMNSLRDEDTAVYYCARLRNSEGYWYFDLWGRGTLVTVSSGGGGSGGGGSGGGGSQSALTQDPAVSVALGQTVRITCQGDSLRSYFASWYQQKPGQAPLLVMYGQNIRPSGIPDRFSGSSSGNSASLTITGAQAEDEADYYCNSRDSSYNHWVFGGGTKLTVLG
notes: as for B1
binding result [2]: binds | binding result [3]: binds

B3: affinity matured scFv-2D1C7 displayed on yeast (scFv)
chain: MAQVKLQESGGGLVQPGGSLRLSCAASGFTFDSYAMSWVRQAPGKGLEWVSYITSSSSTIYYVDSVKGRFTISRDNAKNSLYLQMNSLRDEDTAVYYCARLRNSEGYWYFDLWGRGTLVTVSSGGGGSGGGGSGGGGSQSVLTQDPAVSVALGQTVRITCQGDSLRSYYASWYQQKPGQAPLLVMYGENIRPSGIPDRFSGSTSGNSASLTITGAQAEDEADYYCNSRDSSGNHLNWVFGGGTKLTVLG
Kd [4]: 4.2 nM

B4: affinity matured scFv-3G1A2 displayed on yeast (scFv)
chain: MAQVQLVESWGGVAQPGRSLRLSCAASGFTFSSFAMHWVRQAPGKGLEWVAVTSYDGSNEYYADSVKGRFTISRDNSKNTLYLQMNSLRAEDTAVYYCAKAMVRGVTFGDLDYWGQGTLVTVSSGGGGSGGGGSGGGGSSELTQDPAVSVALGQTVRKTCQGDSLKSYYASWYQQKPGQAPVLVIYGENSRPSGIPDRFSGSSSGNTASLTITGAQAEDEADYYCCSRATGGYHRIFGGGTKLTVLG
Kd [4]: 1.7 nM
